Laboratory results published in patent publication CN115969997A.
pKd: −log10 of the molar value.

Target: CLDN18.2 (亲和力检测, Table 2 ka/kd/KD)
Test: affinity measurement, method not described

IMAB362 (antibody)
pKd: 8.54
